Test results taken from patent US20100316645A1 (Hoffmann-La Roche, published 2010).

B1: bispecific tetravalent antibody recognizing Ang-2 and VEGF-A of Example 1 (<VEGF> VH-CL fused via (G4S)4-connector to the C-terminus of the <Ang-2> heavy chain) (bispecific antibody, human IgG1, kappa)
heavy: not shown
light: QPGLTQPPSVSVAPGQTARITCGGNNIGSKSVHWYQQKPGQAPVLVVYDDSDRPSGIPERFSGSNSGNTATLTISRVEAGDEADYYCQVWDSSSDHYVFGTGTKVTVLRTVAAPSVFIFPPSDEQLKSGTASVVCLLNNFYPREAKVQWKVDNALQSGNSQESVTEQDSKDSTYSLSSTLTLSKADYEKHKVYACEVTHQGLSSPVTKSFNRGEC
chain: DIQMTQSPSSLSASVGDRVTITCSASQDISNYLNWYQQKPGKAPKVLIYFTSSLHSGVPSRFSGSGSGTDFTLTISSLQPEDFATYYCQQYSTVPWTFGQGTKVEIKSSASTKGPSVFPLAPSSKSTSGGTAALGCLVKDYFPEPVTVSWNSGALTSGVHTFPAVLQSSGLYSLSSVVTVPSSSLGTQTYICNVNHKPSNTKVDKKVEPKSC
notes: Tetravalent, expressed in HEK293F from three plasmids; also called bispecific tetravalent <VEGF-Ang-2> antibody; <Ang-2, VEGF> bispecific tetravalent antibody
B2: bispecific tetravalent antibody recognizing Ang-2 and VEGF-A of Example 2 (<VEGF> VH-CL fused via (G4S)4-connector to the N-terminus of the <Ang-2> heavy chain) (bispecific antibody, human IgG1, kappa)
heavy: not shown
light: B1 light
chain: B1 chain
notes: as for B1
B3: bispecific tetravalent antibody recognizing Ang-2 and VEGF-A of Example 3 (<Ang-2> VH-CH1 fused via (G4S)4-connector to the C-terminus of the heavy chain of a … (bispecific antibody)
heavy: not shown
light: B1 light
chain: B1 chain
notes: as for B1

These binders were tested against T1, recombinant human VEGF165 (full-length VEGF165-His protein, R&D Systems; rhVEGF, R&D Systems Cat.-No. 293-VE) (human, UniProt P15692-4 27-191) (assay: ELISA and Biacore (SPR), including simultaneous binding (bridging ELISA, SPR sandwich)).
T1 construct: The ELISA method names 'full-length VEGF165-His protein', and the Biacore method names rhVEGF (R&D 293-VE); also called VEGF-A
Method: Unbound Streptavidin-POD conjugate is washed away with three-six times 300 μl PBST (0.2% Tween 20) and bound Strepatavidin-POD conjugate is detected by addition of 100 μL ABTS/well. Determination of absorbance is performed on a Tecan Fluor Spectrometer at a measurement wavelength of 405 nm (reference wavelength 492 nm).
In order to further corroborate the data from the bridging ELISA an additional assay is established to confirm simultaneous binding to VEGF and Ang-2 using surface plasmon resonance technology on a Biacore T100 instrument according to the following protocol and analyzed using the T100 software package (T100 Control, Version 2.01, T100 Evaluation, Version 2.01, T100 Kinetics Summary, Version 1.01): Ang-2 is captured with a capture level of 2000-1700 RU in PBS, 0.005% (v/v) Tween20 running buffer via a PentaHisAntibody (PentaHis-Ab BSA-free, Qiagen No. 34660) that is immobilized on a CM5 chip via amine coupling (BSA-free). HBS-N buffer served as running buffer during coupling, activation is done by mixture of EDC/NHS. The PentaHis-Ab BSA-free Capture-Antibody is diluted in coupling buffer NaAc, pH 4.5, c=30 μg/mL, finally still activated carboxyl groups are blocked by injection of 1 M Ethanolamine; ligand densities of 5000 and 17000 RU are tested. Ang-2 with a concentration of 500 nM is captured by the PentaHis-Ab at a flow of 5 μL/min diluted with running buffer+1 mg/mL BSA. […] For this sake, the bispecific tetravalent <VEGF-Ang-2> antibody is bound to Ang-2 at a flow of 50 μL/min and a concentration of 100 nM, diluted with running buffer+1 mg/mL BSA and simultaneous binding is detected by incubation with VEGF (rhVEGF, R&D-Systems Cat.-No, 293-VE) in PBS+0.005% (v/v) Tween20 running buffer at a flow of 50 μL/min and a VEGF concentration of 150 nM. Association time 120 sec, dissociation time 1200 sec. Regeneration is done after each cycle at a flow of 50 μL/min with 2×10 mM Glycin pH 2.0 and a contact time of 60 sec. […] Blanks for each Ab are measured with rhVEGF concentration “0”.

T1 sequence (P15692 other isoform, or with tags, fused parts or gaps limits assumed): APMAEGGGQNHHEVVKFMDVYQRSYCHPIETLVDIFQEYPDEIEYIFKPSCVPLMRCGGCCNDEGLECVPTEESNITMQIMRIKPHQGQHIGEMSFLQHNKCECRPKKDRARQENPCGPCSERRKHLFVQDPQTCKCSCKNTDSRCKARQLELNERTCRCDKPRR

Binding result, binds:
B1
B2
B3
